Test results published in patent US9260500B2, “Peptide and use thereof” (Takeda Pharmaceutical Company Limited, priority 2009, dated 2016).
Starred links: 1 amine or outer side, 2 acyl side, 3 side chain; linkers in the order of their positions; H or OH if unused. Non-standard residues stand in square brackets, D forms with d. No end group written: not given here. *: point of attachment. Ala(piperidin-4-yl) = O=C([C@H](CC1CCN([*:3])CC1)N[*:1])[*:2]; Tyr(2-F) = N[C@@H](Cc1ccc(O)cc1F)C(=O)O; 1Nal = N[C@@H](Cc1cccc2ccccc12)C(=O)O; 3Pal = N[C@@H](Cc1cccnc1)C(=O)O; 4Pal = N[C@@H](Cc1ccncc1)C(=O)O; Cha = N[C@@H](CC1CCCCC1)C(=O)O; d(αMeP) = C[C@]1(C(=O)O)CCCN1; dIva = CC[C@@](C)(N)C(=O)O; Isobutyryl = CC(C)C(=O)*; NMeA = CN[C@@H](C)C(=O)O; Orn = NCCC[C@H](N)C(=O)O; Dab = NCC[C@H](N)C(=O)O; Abu = CC[C@H](N)C(=O)O; Nleu = CC(C)CNCC(=O)O; Aib = CC(C)(N)C(=O)O; Bz = O=C(c1ccccc1)*

Assays:
[1] = target: T1, human Y2 receptor (Homo sapiens, UniProt P49146); assay: Receptor Binding Assay (RBA) for Human Y2, [125I]-PYY displacement on hY2R/CHO membrane fraction; conditions: IC50 of test compound/IC50 of PYY(3-36) (PYY(3-36) taken as 1)
T1 construct: expressed in transfected cells; membrane fraction
T1 sequence (P49146 1-381): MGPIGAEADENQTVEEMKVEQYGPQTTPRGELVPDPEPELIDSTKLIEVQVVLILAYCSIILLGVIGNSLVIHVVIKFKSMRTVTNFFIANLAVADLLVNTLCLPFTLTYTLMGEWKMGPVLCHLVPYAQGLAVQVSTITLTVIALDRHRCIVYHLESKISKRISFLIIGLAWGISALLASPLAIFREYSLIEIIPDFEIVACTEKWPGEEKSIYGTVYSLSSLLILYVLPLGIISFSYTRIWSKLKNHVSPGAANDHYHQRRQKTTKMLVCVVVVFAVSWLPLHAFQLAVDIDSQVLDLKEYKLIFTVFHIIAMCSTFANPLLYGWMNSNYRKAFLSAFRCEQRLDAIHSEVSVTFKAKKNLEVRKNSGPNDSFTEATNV
Method in brief: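 Read-out is [125I]-PYY displacement from membranes of CHO/dhfr− cells stably transfected with human Y2R. Membranes were obtained by disrupting cells in a buffer of 10 mM NaHCO3, 5 mM EDTA and protease inhibitors.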

[2] = target: T1, human Y2 receptor; assay: Human Y2 Receptor G Protein Binding Assay (GBA), [35S]GTPγS; assay type: biochemical; conditions: EC50 of test compound/EC50 of PYY(3-36) (PYY3-36 taken as 1), hY2R/CHO membrane fraction
Method in brief: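 Agonism measured as [35S]GTPγS binding, read by GF/C filtration and scintillation counting after 120 min at room temperature, using human Y2 membranes at 1 μg protein/mL in pH 7.4 Tris/MgCl2/NaCl/GDP buffer. Compound serially diluted 100 μM–1 nM; EC50 normalized to PYY(3-36) (ratio = compound/PYY).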

Row | RBA IC50 Ratio [1] | GBA EC50 Ratio [2] | Substance
1 | 5.8 | 2.4 | [N(iBu)Gly23, D-Pro24, Cha27,28,36, Aib31]-PYY(23-36) ([Nleu][dP]RH[Cha][Cha]NL[Aib]TRQR[Cha]-NH2; N-terminus assumed; SMILES CC(C)CNCC(=O)N1CCC[C@@H]1C(=O)N[C@@H](CCCNC(=N)N)C(=O)N[C@@H](Cc1c[nH]cn1)C(=O)N[C@@H](CC1CCCCC1)C(=O)N[C@@H](CC1CCCCC1)C(=O)N[C@@H](CC(N)=O)C(=O)N[C@@H](CC(C)C)C(=O)NC(C)(C)C(=O)N[C@H](C(=O)N[C@@H](CCCNC(=N)N)C(=O)N[C@@H](CCC(N)=O)C(=O)N[C@@H](CCCNC(=N)N)C(=O)N[C@@H](CC1CCCCC1)C(N)=O)[C@@H](C)O) [compound No. 133]
2 | 1.2 | 1.0 | Ac-[Leu22, D-Pro24, Pya(4)26, Cha27,36, Aib28,31, Lys30]-PYY(22-36) (Ac-LS[dP]R[4Pal][Cha][Aib]NK[Aib]TRQR[Cha]-NH2; SMILES CC(=O)N[C@@H](CC(C)C)C(=O)N[C@@H](CO)C(=O)N1CCC[C@@H]1C(=O)N[C@@H](CCCNC(=N)N)C(=O)N[C@@H](Cc1ccncc1)C(=O)N[C@@H](CC1CCCCC1)C(=O)NC(C)(C)C(=O)N[C@@H](CC(N)=O)C(=O)N[C@@H](CCCCN)C(=O)NC(C)(C)C(=O)N[C@H](C(=O)N[C@@H](CCCNC(=N)N)C(=O)N[C@@H](CCC(N)=O)C(=O)N[C@@H](CCCNC(=N)N)C(=O)N[C@@H](CC1CCCCC1)C(N)=O)[C@@H](C)O) [compound No. 274]
3 | 4.5 | 2.6 | Ac-[D-αMePro24, Cha27,28,36, Aib31]-PYY(23-36) (Ac-S[d(αMeP)]RH[Cha][Cha]NL[Aib]TRQR[Cha]-NH2; SMILES CC(=O)N[C@@H](CO)C(=O)N1CCC[C@]1(C)C(=O)N[C@@H](CCCNC(=N)N)C(=O)N[C@@H](Cc1c[nH]cn1)C(=O)N[C@@H](CC1CCCCC1)C(=O)N[C@@H](CC1CCCCC1)C(=O)N[C@@H](CC(N)=O)C(=O)N[C@@H](CC(C)C)C(=O)NC(C)(C)C(=O)N[C@H](C(=O)N[C@@H](CCCNC(=N)N)C(=O)N[C@@H](CCC(N)=O)C(=O)N[C@@H](CCCNC(=N)N)C(=O)N[C@@H](CC1CCCCC1)C(N)=O)[C@@H](C)O) [compound No. 155]
4 | 0.6 | 0.72 | [MeAla22, D-Pro24, Cha27,28,36, Aib31]-PYY(22-36) ([NMeA]S[dP]RH[Cha][Cha]NL[Aib]TRQR[Cha]-NH2; N-terminus assumed; SMILES CN[C@@H](C)C(=O)N[C@@H](CO)C(=O)N1CCC[C@@H]1C(=O)N[C@@H](CCCNC(=N)N)C(=O)N[C@@H](Cc1c[nH]cn1)C(=O)N[C@@H](CC1CCCCC1)C(=O)N[C@@H](CC1CCCCC1)C(=O)N[C@@H](CC(N)=O)C(=O)N[C@@H](CC(C)C)C(=O)NC(C)(C)C(=O)N[C@H](C(=O)N[C@@H](CCCNC(=N)N)C(=O)N[C@@H](CCC(N)=O)C(=O)N[C@@H](CCCNC(=N)N)C(=O)N[C@@H](CC1CCCCC1)C(N)=O)[C@@H](C)O) [compound No. 123]
5 | 0.97 | 1.1 | Ac-[D-Pro24, Pya(4)26, Cha27,36, Aib28,31, Lys(Ac)30]-PYY(23-36) [compound No. 278]
6 | 17 | 11 | Ac-[D-Pro24, Pya(4)26, Ala(4Pip)27, Aib28,31, Lys30, Cha36]-PYY(23-36) [compound No. 308] (Ac-S[dP]R[4Pal][Ala(piperidin-4-yl)][Aib]NK[Aib]TRQR[Cha]-NH2; SMILES CC(=O)N[C@@H](CO)C(=O)N1CCC[C@@H]1C(=O)N[C@@H](CCCNC(=N)N)C(=O)N[C@@H](Cc1ccncc1)C(=O)N[C@@H](CC1CCNCC1)C(=O)NC(C)(C)C(=O)N[C@@H](CC(N)=O)C(=O)N[C@@H](CCCCN)C(=O)NC(C)(C)C(=O)N[C@H](C(=O)N[C@@H](CCCNC(=N)N)C(=O)N[C@@H](CCC(N)=O)C(=O)N[C@@H](CCCNC(=N)N)C(=O)N[C@@H](CC1CCCCC1)C(N)=O)[C@@H](C)O)

Further lines, the substance ahead of its results:

Row | Substance | RBA IC50 Ratio [1] | GBA EC50 Ratio [2]
7 | Isobutanoyl-[Abu26,27, Cha28,36, Aib31]-PYY(25-36) (Isobutyryl-R[Abu][Abu][Cha]NL[Aib]TRQR[Cha]-NH2; SMILES CC[C@H](NC(=O)[C@H](CCCNC(=N)N)NC(=O)C(C)C)C(=O)N[C@@H](CC)C(=O)N[C@@H](CC1CCCCC1)C(=O)N[C@@H](CC(N)=O)C(=O)N[C@@H](CC(C)C)C(=O)NC(C)(C)C(=O)N[C@H](C(=O)N[C@@H](CCCNC(=N)N)C(=O)N[C@@H](CCC(N)=O)C(=O)N[C@@H](CCCNC(=N)N)C(=O)N[C@@H](CC1CCCCC1)C(N)=O)[C@@H](C)O) [compound No. 94] | 31 | 37
8 | Ac-[D-Pro24, Orn26, Cha27,28,36, Aib31]-PYY(23-36) (Ac-S[dP]R[Orn][Cha][Cha]NL[Aib]TRQR[Cha]-NH2; SMILES CC(=O)N[C@@H](CO)C(=O)N1CCC[C@@H]1C(=O)N[C@@H](CCCNC(=N)N)C(=O)N[C@@H](CCCN)C(=O)N[C@@H](CC1CCCCC1)C(=O)N[C@@H](CC1CCCCC1)C(=O)N[C@@H](CC(N)=O)C(=O)N[C@@H](CC(C)C)C(=O)NC(C)(C)C(=O)N[C@H](C(=O)N[C@@H](CCCNC(=N)N)C(=O)N[C@@H](CCC(N)=O)C(=O)N[C@@H](CCCNC(=N)N)C(=O)N[C@@H](CC1CCCCC1)C(N)=O)[C@@H](C)O) [compound No. 150] | 4.2 | 2.2
9 | Isobutanoyl-[Abu26, Cha27,28, Aib31, Tyr(2F)36]-PYY(25-36) (Isobutyryl-R[Abu][Cha][Cha]NL[Aib]TRQR[Tyr(2-F)]-NH2; SMILES CC[C@H](NC(=O)[C@H](CCCNC(=N)N)NC(=O)C(C)C)C(=O)N[C@@H](CC1CCCCC1)C(=O)N[C@@H](CC1CCCCC1)C(=O)N[C@@H](CC(N)=O)C(=O)N[C@@H](CC(C)C)C(=O)NC(C)(C)C(=O)N[C@H](C(=O)N[C@@H](CCCNC(=N)N)C(=O)N[C@@H](CCC(N)=O)C(=O)N[C@@H](CCCNC(=N)N)C(=O)N[C@@H](Cc1ccc(O)cc1F)C(N)=O)[C@@H](C)O) [compound No. 86] | 19 | 11
10 | Ac-[D-Pro24, Pya(3)26, Cha27,28,36, Aib31]-PYY(23-36) (Ac-S[dP]R[3Pal][Cha][Cha]NL[Aib]TRQR[Cha]-NH2; SMILES CC(=O)N[C@@H](CO)C(=O)N1CCC[C@@H]1C(=O)N[C@@H](CCCNC(=N)N)C(=O)N[C@@H](Cc1cccnc1)C(=O)N[C@@H](CC1CCCCC1)C(=O)N[C@@H](CC1CCCCC1)C(=O)N[C@@H](CC(N)=O)C(=O)N[C@@H](CC(C)C)C(=O)NC(C)(C)C(=O)N[C@H](C(=O)N[C@@H](CCCNC(=N)N)C(=O)N[C@@H](CCC(N)=O)C(=O)N[C@@H](CCCNC(=N)N)C(=O)N[C@@H](CC1CCCCC1)C(N)=O)[C@@H](C)O) [compound No. 148] | 3.3 | 1.2
11 | Ac-[D-Pro24, Cha27,28,36, Dab30, Aib31]-PYY(23-36) (Ac-S[dP]RH[Cha][Cha]N[Dab][Aib]TRQR[Cha]-NH2; SMILES CC(=O)N[C@@H](CO)C(=O)N1CCC[C@@H]1C(=O)N[C@@H](CCCNC(=N)N)C(=O)N[C@@H](Cc1c[nH]cn1)C(=O)N[C@@H](CC1CCCCC1)C(=O)N[C@@H](CC1CCCCC1)C(=O)N[C@@H](CC(N)=O)C(=O)N[C@@H](CCN)C(=O)NC(C)(C)C(=O)N[C@H](C(=O)N[C@@H](CCCNC(=N)N)C(=O)N[C@@H](CCC(N)=O)C(=O)N[C@@H](CCCNC(=N)N)C(=O)N[C@@H](CC1CCCCC1)C(N)=O)[C@@H](C)O) [compound No. 165] | 2.6 | 1.6
12 | Benzoyl-[Cha27,36, Nal(1)28, Aib31]-PYY(25-36) (Bz-RH[Cha][1Nal]NL[Aib]TRQR[Cha]-NH2; SMILES CC(C)C[C@H](NC(=O)[C@H](CC(N)=O)NC(=O)[C@H](Cc1cccc2ccccc12)NC(=O)[C@H](CC1CCCCC1)NC(=O)[C@H](Cc1c[nH]cn1)NC(=O)[C@H](CCCNC(=N)N)NC(=O)c1ccccc1)C(=O)NC(C)(C)C(=O)N[C@H](C(=O)N[C@@H](CCCNC(=N)N)C(=O)N[C@@H](CCC(N)=O)C(=O)N[C@@H](CCCNC(=N)N)C(=O)N[C@@H](CC1CCCCC1)C(N)=O)[C@@H](C)O) [compound No. 63] | 34 | 25
13 | Ac-[D-Pro24, D-Iva26, Cha27,28,36, Aib31]-PYY(23-36) (Ac-S[dP]R[dIva][Cha][Cha]NL[Aib]TRQR[Cha]-NH2; SMILES CC[C@@](C)(NC(=O)[C@H](CCCNC(=N)N)NC(=O)[C@H]1CCCN1C(=O)[C@H](CO)NC(C)=O)C(=O)N[C@@H](CC1CCCCC1)C(=O)N[C@@H](CC1CCCCC1)C(=O)N[C@@H](CC(N)=O)C(=O)N[C@@H](CC(C)C)C(=O)NC(C)(C)C(=O)N[C@H](C(=O)N[C@@H](CCCNC(=N)N)C(=O)N[C@@H](CCC(N)=O)C(=O)N[C@@H](CCCNC(=N)N)C(=O)N[C@@H](CC1CCCCC1)C(N)=O)[C@@H](C)O) [compound No. 181] | 19 | 13
